Assay results taken from patent US20210363269A1 (ALX ONCOLOGY, published 2021).

Tests used:
Test in all cases: SPR, captured scFv-Fc
[1] = target: T1, cynomolgus SIRP-α D1 domain (SEQ ID NO:11) (cynomolgus, UniProt Q5TFQ8 30-148 (human entry), limits assumed)
T1 construct: also called cyno1
T1 chain: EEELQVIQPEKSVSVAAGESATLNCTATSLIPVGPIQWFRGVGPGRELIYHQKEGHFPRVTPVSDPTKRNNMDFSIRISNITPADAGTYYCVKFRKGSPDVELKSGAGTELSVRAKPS
Method in brief: (§1)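 Antibody clones in scFv-Fc format were captured from pre-filtered culture media onto anti-human IgG Fc, amine-coupled (about 4000 RU) on a GLC chip of a ProteOn XPR36 instrument. SIRP analytes were flowed in PBS pH 7.4 with 0.01% Tween-20 at 25° C. Data were double-referenced against interspot and buffer-blank responses. Dissociation rate constants (koff) were derived by fitting a 1:1 Langmuir model.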

[2] = target: T2, NOD mouse SIRP-α D1 domain (mouse (NOD strain))
T2 chain: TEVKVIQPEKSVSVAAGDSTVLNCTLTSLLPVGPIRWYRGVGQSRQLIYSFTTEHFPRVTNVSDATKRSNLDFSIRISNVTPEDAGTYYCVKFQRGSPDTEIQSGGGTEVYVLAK
Method in brief: as §1

[3] = target: T3, human SIRPβ isoform 1 (human, UniProt O00241 30-148)
T3 construct: also called sirpb1; Sirpb1
Method in brief: as §1

[4] = target: T4, human SIRP-α v2 D1 domain (human)
T4 construct: also called human v2; human α v2
Method in brief: as §1

[5] = target: T5, C57BL/6 mouse SIRP-α D1 domain (mouse (C57BL/6 strain), UniProt P97797 32-148)
T5 sequence: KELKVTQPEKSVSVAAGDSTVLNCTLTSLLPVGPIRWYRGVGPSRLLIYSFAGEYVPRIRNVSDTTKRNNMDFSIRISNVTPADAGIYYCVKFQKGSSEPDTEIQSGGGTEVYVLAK
Method in brief: as §1

[6] = target: T6, mouse 129 SIRP-α D1 domain (mouse (129 strain), UniProt P97797 32-150)
T6 construct: also called m129
T6 chain: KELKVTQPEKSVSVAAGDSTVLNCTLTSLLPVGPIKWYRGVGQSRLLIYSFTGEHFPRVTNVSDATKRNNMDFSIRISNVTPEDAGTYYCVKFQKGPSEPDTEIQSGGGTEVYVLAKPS
Method in brief: as §1

[7] = target: T7, human SIRPγ isoform 1 (human, UniProt Q9P1W8 29-147)
T7 construct: also called sirpg; sirp-g
Method in brief: as §1

[8] = target: T8, cynomolgus SIRP-α D1 domain (SEQ ID NO:12) (cynomolgus, UniProt Q5TFQ8 30-148 (human entry), limits assumed)
T8 construct: also called cyno2; Cyno2
T8 chain: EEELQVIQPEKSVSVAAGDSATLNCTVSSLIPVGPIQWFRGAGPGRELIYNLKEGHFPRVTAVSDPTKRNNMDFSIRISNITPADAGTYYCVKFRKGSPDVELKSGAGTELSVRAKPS
Method in brief: as §1

Measured: binding result

T3 sequence (O00241 30-148 limits assumed): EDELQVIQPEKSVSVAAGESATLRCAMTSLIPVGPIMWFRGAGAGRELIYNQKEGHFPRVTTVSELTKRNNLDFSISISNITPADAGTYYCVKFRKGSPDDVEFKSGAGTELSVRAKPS
T7 sequence (Q9P1W8 29-147 limits assumed): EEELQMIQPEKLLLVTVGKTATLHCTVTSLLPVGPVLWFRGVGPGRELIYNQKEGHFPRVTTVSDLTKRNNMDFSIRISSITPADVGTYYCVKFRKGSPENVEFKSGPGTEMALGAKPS

B1: S138 scFv-Fc (scFv)
scFv: EIVLTQSPGTLSVSPGERVILTCRASQSVDTYNLAWYQQKPGQAPRLLIYDLSTRATGIPDRFSGSGSGTEFTLTINSLEPEDFAVYYCHQYYDWPPYTFGGGTKVEIKGQSSRSSGGGGSSGGGGSDVQLVESGGGVVRPGESLRLSCAASGFTFSNYAMNWVRQAPGEGLEWVSGISGRGGDTYYADSVKGRFTISRDNSKNTLYLQMNSLRAEDTAIYYCAKGTWNYGSFDYWGLGTLVTVSSSLDPKSSDKTDTCPPCPAPELLGGPSVFLFPPKPKDTLMISRTPEVTCVVVDVSHEDPEVKFNWYVDGV
notes: scFv-Fc; Human framework
no binding (tested: 100 nM): [1] | [2] | [3] | [4] | [5] | [6] | [7] | [8]
